B1: NGF: Nerve growth factor; murine NGF (Promega) used as positive control (protein, UniProt P01139 122-241, looked up)
Beta-nerve growth factor: SSTHPVFHMGEFSVCDSVSVWVGDKTTATDIKGKEVTVLAEVNINNSVFRQYFFETKCRASNPVESGCRGIDSKHWNSYCTTTHTFVKALTTDEKQAAWRFIRIDTACVCVLSRKATRRG
modifications: Beta-nerve growth factor
notes: Nerve growth factor; murine NGF (Promega) used as positive control

How the values were obtained:
PC12 cells = test: PC12 bioassay of neurite outgrowth with astrocyte-conditioned medium; format: cell-based; details: 24 h
Protocol: To evaluate neurite outgrowth, PC12 cells were plated at a low density (2×10^4 cells per cm^2) onto poly-D lysine-coated 24-well plates. After 24 h, the adherent PC12 cells were washed with PBS and incubated with conditioned medium derived from either untreated or Ganoderma lucidum-treated astrocyte cultures to monitor neurite outgrowth (using a low serum condition in DMEM containing 1% FBS). Eight to ten images per group were photographed under light microscopy, and the percentage of cells with neurites that exceeded (the percentage of cells with neurites exceeding) the diameter of cell body was analyzed by examining 100-200 cells per image. Images were analyzed by an operator blinded to the experimental conditions. For the preparation of ACM, astrocytes were treated with Ganoderma lucidum for 24 hours and were washed with PBS and fed with low serum medium (without Ganoderma lucidum). After 24 hours, the medium was centrifuged at 200×g for 20 mins to remove cell debris, and the supernatant was collected as the ACM and used immediately. Murine NGF 100 ng/ml (Promega Biotech Co., Ltd, USA) was used as positive control.

NGF = NGF expression and release in primary astrocyte cultures (RT-PCR, real time PCR, western blot); format: cell-based, C57BL/6J mice; details: primary astrocytes, 6 hours
Protocol: Astrocyte-enriched cultures were prepared from post-natal one day-old C57BL/6J mice obtained from the Animal Center at the National Yang Ming University, Taiwan. Briefly, cortical tissue was digested with trypsin. The resultant dissociated cells were suspended in DMEM containing 10% FBS and incubated in 100-mm culture dishes. After 3 days in culture, cells were re-fed with fresh 10% FBS/DMEM and maintained at 37° C. for an additional 3 days. The cells were dissociated with trypsin, suspended in 10% FBS/DMEM and incubated in a 10-cm dish for 7-8 days prior to use. Astrocytes prepared by this method consisted of approximately 90-95% astrocytes as determined by immunochemical staining with an antibody against glial fibrillary acidic protein (GFAP), a specific marker for astrocytes. Neural stem cell cultures were prepared from 1 day-old C57BL/6J mice. Cells obtained by trypsinization of cortical tissue were suspended in 100 ml DMEM/F12 medium (2×10^5 cells/ml) containing 1% N2, 20 ng/ml EGF, 20 ng/ml bFGF and […] BSA in 1 L roller bottles for 7 days for the formation of neurospheres. The neurospheres were examined with an antibody against nestin, a specific marker for neural stem cells. […]
RNA was prepared using RNA-Bee™ RNA isolation reagent (Tel-test, Friendswood, Tex.). […] Relative gene expression levels were calculated with the 2^−ΔΔCT method. […]

[1] = system: mHtt74Q-expressing PC12 cell; test: mHtt-74Q aggregation in HD cell model by FACS analysis of EGFP fluorescence; format: cell-based
Protocol: (§1) Mammalian expression vectors comprising EGFP (pEGFP-C1, Clontech) fused at its C terminus with an HD gene exon 1 fragment with 74 polyglutamine repeats (mHtt-74Q) was a gift from Dr. David C. Rubinsztein's laboratory. The PC12 stable cells were maintained in 100 µg/ml hygromycin in standard medium consisting of DMEM with 100 U/ml penicillin/streptomycin, 2 mM L-glutamine, 10% heat-inactivated horse serum, 5% FBS and 200 ug/ml G418 at 37° C., 5% CO2. The cells were seeded at 2×10^5 per well in 12-well plates and were induced expression of mHtt-74Q with 200 ng/ml doxycycline for 24 h. The expression of transgenes was switched off by removing doxycycline from the medium. […] They were either fixed with 1% paraformaldehyde for 20 mins for FACS analysis (BD Biosciences) of EGFP fluorescence of mHtt-74Q followed by analysis of mean fluorescence intensity of 10,000 events by Cellquest software (BD Biosciences) or processed for real time PCR analysis. […] The samples were mounted and analyzed using a fluorescence microscope (Olympus IX-70 and POT2, USA) with excitation wave of 335 nm and emission of 525 nm. The intensity of the color staining reflected the level of autophagic activity, which was measured with an Image-Pro Plus Analysis system (Media Cybernetics, Bethesda, USA). To quantify MDC punctae, at least 4 random fields were imaged and the average number of punctae area per cell was calculated.

[2] = system: mHtt74Q-expressing PC12 cell; test: Autophagy in HD cell model: MDC staining and western blot of LC3-II; format: cell-based
Protocol: as §1, with “calculated. […]” for “calculated.”

Molecule	neurite outgrowth activity (PC12 cells)	NGF mRNA expression (NGF)	mHtt-74Q accumulation ([1]; HD cell model, FACS analysis)	fluorescence distribution of cells expressing mHtt-74Q (aggregates) ([1]; NGF 50 ng/ml)	MDC intensity [2]	autophagic activity (MDC staining, LC3-II western blot) [2]
Ganoderic acid C2	particularly marked	particularly marked	–	–	–	–
B1	–	–	reduction in mHtt-74Q accumulation	reduced aggregates	enhanced MDC stain	up-regulated

From patent US20140147464A1, “METHOD AND COMPOSITION FOR INDUCING AUTOPHAGY” (NATIONAL YANG-MING UNIVERSITY, priority 2012, published 2014)
